Reference: article PMC5772613, “Phosphorylation induced cochaperone unfolding promotes kinase recruitment and client class-specific Hsp90 phosphorylation” (Nature Communications, 2018)
Changes are numbered by the printed parent chain. Names and notes keep the numbering of the source. One block for each binder: values may come before it. Square brackets hold non-standard residues; d marks the D form. Ends that are not written are not given here. pY = N[C@@H](Cc1ccc(OP(=O)(O)O)cc1)C(=O)O

Legend:
Settings in all cases: both partners purified
Full-length Hsp90β [1] = target: T1, Full-length Hsp90β (UniProt P08238 1-724); test: ITC; cochaperone Cdc37 (~300-400 μM, syringe) titrated into Hsp90β variants (~20-30 μM, cell); 25 °C; 20 mM Tris, 100 mM NaCl, 0.5 mM EDTA, 1 mM TCEP; single binding site model
T1 construct: Hsp90β (printed as full-length Hsp90αβ1), in pET28; also called Hsp90αβ1
T1 sequence (P08238 whole entry): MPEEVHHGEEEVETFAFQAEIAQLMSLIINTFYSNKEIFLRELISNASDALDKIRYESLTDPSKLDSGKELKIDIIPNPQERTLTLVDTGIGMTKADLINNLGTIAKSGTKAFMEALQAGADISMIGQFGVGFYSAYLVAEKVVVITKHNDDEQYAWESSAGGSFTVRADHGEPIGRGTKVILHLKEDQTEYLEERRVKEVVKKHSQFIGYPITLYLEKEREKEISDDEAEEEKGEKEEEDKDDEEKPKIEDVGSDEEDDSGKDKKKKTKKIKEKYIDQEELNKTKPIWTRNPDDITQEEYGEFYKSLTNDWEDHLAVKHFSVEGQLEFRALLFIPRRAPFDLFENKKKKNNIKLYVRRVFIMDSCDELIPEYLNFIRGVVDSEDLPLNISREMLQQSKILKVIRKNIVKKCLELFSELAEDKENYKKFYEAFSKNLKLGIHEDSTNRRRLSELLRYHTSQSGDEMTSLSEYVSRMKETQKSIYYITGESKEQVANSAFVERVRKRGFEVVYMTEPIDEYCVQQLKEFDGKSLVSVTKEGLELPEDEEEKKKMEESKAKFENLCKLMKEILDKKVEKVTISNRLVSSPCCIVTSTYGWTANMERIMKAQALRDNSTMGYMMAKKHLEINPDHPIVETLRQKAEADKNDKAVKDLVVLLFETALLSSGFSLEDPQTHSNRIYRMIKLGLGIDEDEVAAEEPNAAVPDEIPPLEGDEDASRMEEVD

Full-length Hsp90β [2] = target: T1, Full-length Hsp90β; test: SEC; analytical, Biorad Enrich SEC 650, 4 °C; 20 mM Tris pH 7.5, 100 mM NaCl, 0.5 mM EDTA, 2 mM DTT; binary mixtures 1:1 and ternary mixtures Hsp90:Cdc37:bRaf 2:1:1, incubated 15 min at 4 °C
SH2 domain of Yes = target: T2, SH2 domain of Yes (UniProt P07947 158-255); test: ITC; phosphopeptide (600-750 μM, syringe) titrated into SH2 domain (50-60 μM, cell); 25 °C; 20 mM Tris, 100 mM NaCl, 0.5 mM EDTA, 1 mM TCEP; single binding site model
T2 construct: Yes, SH2 domain; Gift of Bruce Mayer (pGEX); 15N-labelled for NMR; also called Yes^SH2; SH2^Yes; source: E. coli BL21(DE3), purified (GST column, PreScission cleavage, second GST column, Superdex 75); not shown: GST, N-terminal, cleaved
T2 sequence (P07947 158-255): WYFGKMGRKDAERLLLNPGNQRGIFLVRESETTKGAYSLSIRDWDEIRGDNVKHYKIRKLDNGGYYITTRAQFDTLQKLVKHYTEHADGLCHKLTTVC

- binding result (Full-length Hsp90β [1]): binds
B1: Full-length human Cdc37 (natural protein, UniProt Q16543 1-378, looked up)
chain: MVDYSVWDHIEVSDDEDETHPNIDTASLFRWRHQARVERMEQFQKEKEELDRGCRECKRKVAECQRKLKELEVAEGGKAELERLQAEAQQLRKEERSWEQKLEEMRKKEKSMPWNVDTLSKDGFSKSMVNTKPEKTEEDSEEVREQKHKTFVEKYEKQIKHFGMLRRWDDSQKYLSDNVHLVCEETANYLVIWCIDLEVEEKCALMEQVAHQTIVMQFILELAKSLKVDPRACFRQFFTKIKTADRQYMEGFNDELEAFKERVRGRAKLRIEKAMKEYEEEERKKRLGPGGLDPVEVYESLPEELQKCFDVKDVQMLQDAISKMDPTDAKYHMQRCIDSGLWVPNSKASEAKEGEEAGPGDPLLEAVPKTGDEKDVSV
notes: Cdc37 (p50), human, full length; isotope-labelled in some NMR samples; also called p50; wild-type Cdc37

- binding result (Full-length Hsp90β [2]): binds
B2: Cdc37 double-phosphomimetic mutant Y4E/Y298E (natural protein, human, UniProt Q16543 1-378, looked up)
chain: B1 chain with Y4E, Y298E
notes: Cdc37 (p50), human, double point mutant of the full-length construct; also called Cdc37^EE; C^EE

- binding result (Full-length Hsp90β [2]): binds
B3: Cdc37 single phosphomimetic mutant Y4E (natural protein, human, UniProt Q16543 1-378, looked up)
chain: B1 chain with Y4E
notes: Cdc37 (p50), human, point mutant of the full-length construct; also called Cdc37^Y4E

- binding result (Full-length Hsp90β [2]): binds
B4: Full-length Cdc37 carrying the phosphomimetic mutation Y298E (natural protein, human, UniProt Q16543 1-378, looked up)
chain: B1 chain with Y298E
notes: Cdc37 (p50), human, full length, point mutant; Point mutants made by QuikChange; Methyl-labelled for the NMR sample with Hsp90α; also called Cdc37^Y298E

- Kd (SH2 domain of Yes): 410 nM
B5: Phosphotyrosine-modified decapeptide EVpYESLPEEL of Cdc37 (residues 296-305) (peptide)
peptide: EV[pY]ESLPEEL
notes: Cdc37, residues 296-305; also called phosphopeptide; source: synthetic peptide (GL Biochem)
